Measurements reported in publication PMC4354923, “FTO is necessary for the induction of leptin resistance by high-fat feeding” (Molecular Metabolism, 2015).

Target: Myc-tagged full length FTO (UniProt Q9C0B1 1-505)
Experiment: cell-based or functional assay

Chain of Myc-tagged full length FTO (Q9C0B1 whole entry): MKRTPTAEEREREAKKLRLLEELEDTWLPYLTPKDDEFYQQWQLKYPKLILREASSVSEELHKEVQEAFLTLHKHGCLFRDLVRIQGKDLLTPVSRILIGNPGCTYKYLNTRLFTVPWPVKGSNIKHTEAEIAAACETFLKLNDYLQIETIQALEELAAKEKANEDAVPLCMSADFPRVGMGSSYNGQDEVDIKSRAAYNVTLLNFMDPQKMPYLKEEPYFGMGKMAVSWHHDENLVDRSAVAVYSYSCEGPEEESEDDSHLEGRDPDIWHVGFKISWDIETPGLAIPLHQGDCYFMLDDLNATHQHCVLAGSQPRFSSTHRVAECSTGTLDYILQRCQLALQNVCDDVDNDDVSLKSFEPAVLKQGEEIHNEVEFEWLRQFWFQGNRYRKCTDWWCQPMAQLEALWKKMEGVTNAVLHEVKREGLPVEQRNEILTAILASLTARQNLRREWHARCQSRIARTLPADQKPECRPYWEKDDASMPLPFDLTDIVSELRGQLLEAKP

NFκB-responsive firefly luciferase reporter (normalised to renilla) in Fto null MEFs co-transfected with a TRIP4 expression construct and Myc-tagged full length FTO: ≤ 5 fold
B1: Thyroid receptor interacting protein 4 (TRIP4), in HEK293 cell extract (natural protein, human (endogenous in HEK293), UniProt Q15650 1-581, looked up)
chain: MAVAGAVSGEPLVHWCTQQLRKTFGLDVSEEIIQYVLSIESAEEIREYVTDLLQGNEGKKGQFIEELITKWQKNDQELISDPLQQCFKKDEILDGQKSGDHLKRGRKKGRNRQEVPAFTEPDTTAEVKTPFDLAKAQENSNSVKKKTKFVNLYTREGQDRLAVLLPGRHPCDCLGQKHKLINNCLICGRIVCEQEGSGPCLFCGTLVCTHEEQDILQRDSNKSQKLLKKLMSGVENSGKVDISTKDLLPHQELRIKSGLEKAIKHKDKLLEFDRTSIRRTQVIDDESDYFASDSNQWLSKLERETLQKREEELRELRHASRLSKKVTIDFAGRKILEEENSLAEYHSRLDETIQAIANGTLNQPLTKLDRSSEEPLGVLVNPNMYQSPPQWVDHTGAASQKKAFRSSGFGLEFNSFQHQLRIQDQEFQEGFDGGWCLSVHQPWASLLVRGIKRVEGRSWYTPHRGRLWIAATAKKPSPQEVSELQATYRLLRGKDVEFPNDYPSGCLLGCVDLIDCLSQKQFKEQFPDISQESDSPFVFICKNPQEMVVKFPIKGNPKIWKLDSKIHQGAKKGLMKQNKAV
